This is an account of results in patent US20040043420A1, “Method of identifying conformation-sensitive binding peptides and uses thereof” (priority 2003, published 2004).

Bounds are passed on as bounds.

Experiment [1] has as its target ER β (Homo sapiens, UniProt Q92731). Briefly: Phage ELISA fingerprint: binding of peptide phage to immobilized ER β in the presence of modulators (Table 14B).
Experiment [2] addresses T1, ER α (UniProt P03372 1-595, limits assumed).
T1 construct: also called estrogen receptor α; ERα-ERE
T1 sequence (looked up): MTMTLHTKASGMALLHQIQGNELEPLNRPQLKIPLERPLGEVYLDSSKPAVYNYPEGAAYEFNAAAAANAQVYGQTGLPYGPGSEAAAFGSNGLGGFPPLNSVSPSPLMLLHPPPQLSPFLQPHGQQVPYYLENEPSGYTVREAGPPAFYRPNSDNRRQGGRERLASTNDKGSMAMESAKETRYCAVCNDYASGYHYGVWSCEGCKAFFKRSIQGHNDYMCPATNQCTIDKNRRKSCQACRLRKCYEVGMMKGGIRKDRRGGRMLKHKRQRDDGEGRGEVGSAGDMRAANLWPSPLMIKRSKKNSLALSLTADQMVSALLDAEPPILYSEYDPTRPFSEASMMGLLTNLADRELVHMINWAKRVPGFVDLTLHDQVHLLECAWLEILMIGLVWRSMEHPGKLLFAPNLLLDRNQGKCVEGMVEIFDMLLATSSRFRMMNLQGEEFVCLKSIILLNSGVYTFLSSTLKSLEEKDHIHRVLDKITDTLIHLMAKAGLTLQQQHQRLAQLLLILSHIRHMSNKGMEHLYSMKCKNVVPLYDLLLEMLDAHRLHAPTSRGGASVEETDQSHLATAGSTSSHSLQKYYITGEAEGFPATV
Kind of experiment: phage isolated on ERα-ERE; Tamoxifen.

The target of experiment [3] is T2, Gal4 transcriptional activation domain (AD) fused in frame with AR (yeast, UniProt P10275 1-920, limits assumed).
T2 sequence (looked up): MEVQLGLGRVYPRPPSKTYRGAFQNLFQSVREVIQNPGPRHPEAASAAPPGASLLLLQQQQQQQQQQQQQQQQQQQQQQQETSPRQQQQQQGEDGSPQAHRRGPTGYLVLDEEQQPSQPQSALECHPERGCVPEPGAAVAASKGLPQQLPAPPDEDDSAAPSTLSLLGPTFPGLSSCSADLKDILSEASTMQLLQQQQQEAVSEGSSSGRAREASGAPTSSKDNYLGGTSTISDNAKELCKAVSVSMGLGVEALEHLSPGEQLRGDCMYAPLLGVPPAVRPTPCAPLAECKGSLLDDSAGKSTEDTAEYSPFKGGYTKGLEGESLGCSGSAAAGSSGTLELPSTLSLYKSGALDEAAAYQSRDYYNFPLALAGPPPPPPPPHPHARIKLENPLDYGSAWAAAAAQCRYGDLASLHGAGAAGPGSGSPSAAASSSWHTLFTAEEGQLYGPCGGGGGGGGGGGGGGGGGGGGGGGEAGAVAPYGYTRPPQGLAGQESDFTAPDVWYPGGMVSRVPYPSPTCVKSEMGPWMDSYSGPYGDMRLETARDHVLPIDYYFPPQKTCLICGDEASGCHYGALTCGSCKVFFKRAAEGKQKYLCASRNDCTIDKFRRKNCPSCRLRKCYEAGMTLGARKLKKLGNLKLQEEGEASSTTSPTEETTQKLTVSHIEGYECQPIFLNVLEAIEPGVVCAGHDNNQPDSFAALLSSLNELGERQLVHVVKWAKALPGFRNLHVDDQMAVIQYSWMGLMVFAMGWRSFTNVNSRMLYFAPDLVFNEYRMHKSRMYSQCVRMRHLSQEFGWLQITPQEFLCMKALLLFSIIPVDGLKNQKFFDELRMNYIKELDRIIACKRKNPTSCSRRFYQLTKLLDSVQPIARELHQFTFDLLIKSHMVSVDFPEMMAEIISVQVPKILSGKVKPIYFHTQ
Kind of experiment: cell-based or functional assay.

In experiment [4] the target is T2, Gal4 transcriptional activation domain …. Briefly: cell-based or functional assay. This is another data set of the same source.
The target in experiment [5] is T3, ER α, P03372.
T3 chain: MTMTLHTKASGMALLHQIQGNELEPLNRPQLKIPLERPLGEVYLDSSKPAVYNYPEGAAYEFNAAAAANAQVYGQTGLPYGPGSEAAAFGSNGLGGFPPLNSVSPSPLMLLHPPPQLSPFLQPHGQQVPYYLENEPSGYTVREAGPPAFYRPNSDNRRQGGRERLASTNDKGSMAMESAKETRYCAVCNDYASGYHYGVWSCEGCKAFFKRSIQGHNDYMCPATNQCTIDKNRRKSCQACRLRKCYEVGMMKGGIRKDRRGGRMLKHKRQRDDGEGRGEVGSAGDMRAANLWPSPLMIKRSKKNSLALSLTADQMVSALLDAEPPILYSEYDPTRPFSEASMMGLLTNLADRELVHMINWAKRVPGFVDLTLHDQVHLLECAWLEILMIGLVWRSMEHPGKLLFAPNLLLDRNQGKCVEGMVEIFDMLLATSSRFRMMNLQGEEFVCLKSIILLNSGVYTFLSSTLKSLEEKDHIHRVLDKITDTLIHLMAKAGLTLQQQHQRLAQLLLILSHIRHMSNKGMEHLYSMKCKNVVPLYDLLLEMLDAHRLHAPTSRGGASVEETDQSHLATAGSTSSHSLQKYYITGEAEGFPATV
Briefly: peptide probe binding to ERα, Raloxifene.

Experiment [6] addresses T3, ER α, P03372. Kind of experiment: peptide probe binding to ERα, Diethylstilbesterol.
Experiment [7] has as its target T3, ER α, P03372. Briefly: peptide probe binding to ERα, 17β-Estradiol.
Experiment [8] has as its target T3, ER α, P03372. Briefly: peptide probe binding to ERα, Buffer.
Experiment [9] deals with T3, ER α, P03372. Briefly: peptide probe binding to ERα, ICI 182,780.
The target of experiment [10] is T3, ER α, P03372. Kind of experiment: peptide probe binding to ERα, 4-OH Tamoxifen.
For experiment [11], the target named is T3, ER α, P03372. Briefly: peptide probe binding to ERα, 17α-Estradiol.
The target in experiment [12] is T3, ER α, P03372. Briefly: peptide probe binding to ERα, Nafoxidine.
Experiment [13] addresses T3, ER α, P03372. Briefly: peptide probe binding to ERα, Clomiphene.
The target in experiment [14] is T3, ER α, P03372. Kind of experiment: peptide probe binding to ERα, Estriol.
Experiment [15] has as its target T3, ER α, P03372. Kind of experiment: peptide probe binding to ERα, GW7604.
Experiment [16] addresses T1, ER α. Briefly: phage isolated on ERα-ERE; Raloxifen.
For experiment [17], the target named is T4, ER β (UniProt Q92731 1-530, limits assumed).
T4 construct: In vitro; also called estrogen receptor β; ERβ-ERE
T4 sequence (Q92731 whole entry): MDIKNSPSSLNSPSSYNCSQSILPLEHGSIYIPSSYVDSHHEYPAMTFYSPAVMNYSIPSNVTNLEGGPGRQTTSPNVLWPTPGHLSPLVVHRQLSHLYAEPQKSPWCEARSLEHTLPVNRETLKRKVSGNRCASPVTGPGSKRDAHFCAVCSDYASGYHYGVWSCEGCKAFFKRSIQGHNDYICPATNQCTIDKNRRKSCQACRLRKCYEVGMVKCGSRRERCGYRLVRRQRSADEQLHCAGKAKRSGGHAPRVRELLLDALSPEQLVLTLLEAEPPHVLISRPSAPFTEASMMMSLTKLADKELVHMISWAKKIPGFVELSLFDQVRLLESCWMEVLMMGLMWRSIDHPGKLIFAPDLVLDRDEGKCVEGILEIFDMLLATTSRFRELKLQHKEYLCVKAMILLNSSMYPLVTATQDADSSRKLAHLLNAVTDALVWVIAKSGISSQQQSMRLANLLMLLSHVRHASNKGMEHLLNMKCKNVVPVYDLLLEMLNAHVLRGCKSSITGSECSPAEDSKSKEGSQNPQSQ
Kind of experiment: peptide probe binding to ERβ, Raloxifene.

For experiment [18], the target named is T4, ER β. Kind of experiment: phage ELISA, ICI 182,780 1 µM. On the technique in general: In an ELISA, binding on a coated surface is turned into a signal by an enzyme label.
Experiment [19] has as its target T4, ER β. Briefly: peptide probe binding to ERβ, Clomiphene.
In experiment [20] the target is T4, ER β. Briefly: peptide probe binding to ERβ, Estriol.

Sequence of ER β (Homo sapiens, UniProt Q92731) (Q92731 whole entry, species assumed): as the sequence (Q92731 whole entry) above

In the case of SSNHQSSRLIELLSR [#4 ER./E2], in the experiment with ER β [1] (4-OH tamoxifen 1 μM), the “Class Specific Fingerprint on ERβ: phage binding, 4-OH Tamoxifen present” value is listed as 0. Further, the “Class Specific Fingerprint on ERβ: phage binding, ICI 182,780 present” value with ER β [1] (ICI 182,780 1 μM) came out at 0. Moreover, in the experiment with ER β [1] (clomiphene 10 μM), the “Class Specific Fingerprint on ERβ: phage binding, Clomiphene present” value is recorded as 0. Moreover, the “Class Specific Fingerprint on ERβ: phage binding, Raloxifene present” value with ER β [1] (raloxifene 1 μM) was found to be 0.

In the case of SRLPPSVFSMCGSEVCLSR [9Tβ], the “Class Specific Fingerprint on ERβ: phage binding, Nafoxidine present” value in the experiment with ER β [1] (nafoxidine 10 μM) is 5.

For SRFEIWKPEPGCVSSLENWEPGKRVCSR [T2-10], the binding result in the experiment with ER α [2] is recorded as “binds”.

B1: B22F6 (peptide)
chain: MKLLSSIEQACDICRLKKLKCSKEKPKCAKCLKNNWECRYSPKTKRSPLTRAHLTEVESRLERLEQLFLLIFPREDLDMILKMDSLQDIKALLTGLFVQDNVNKDAVTDRLASVETDMPLTLRQHRISATSSSEESSNKGQRQLTVSEFLSGLEMEVVLWHYGRLDLQPS
For the molecule B1, in experiment [3], the “β-galactosidase activity (yeast two-hybrid), CPA” value (“β-galactosidase activity … CPA” for short) worked out at 1.23; the “β-galactosidase activity (yeast two-hybrid), DHT” value (“β-galactosidase activity … DHT” below) came to 7.85; the “β-galactosidase activity (yeast two-hybrid), MPA” value (shortened to “β-galactosidase activity … MPA”) was 4.56; the “β-galactosidase activity (yeast two-hybrid), No Lig” value (“β-galactosidase activity … No Lig” for short) turned out to be 0.794. Moreover, in experiment [3], the “β-galactosidase activity (yeast two-hybrid), RU” value (shortened to “β-galactosidase activity … RU”) was determined as 1.2 and the “β-galactosidase activity (yeast two-hybrid), Test” value (“β-galactosidase activity … Test” below) stood at 7.77. The “Fold induction (yeast two-hybrid)” value in [4] came to 10 fold.

SSLTSRDFGSWYASR (modifications not checked) [phage 5 (Table 2)]: the Equiv. with ER α, P03372 [5] is 44%; in the experiment with ER α, P03372 [6] it was 69%; in the experiment with ER α, P03372 [7] it was 100%; with ER α, P03372 [8], 0%; with ER α, P03372 [9], 56%; with ER α, P03372 [10] it was 38%. For the same molecule, the Equiv. in the experiment with ER α, P03372 [11] is 80%; with ER α, P03372 [12] it was 32%; with ER α, P03372 [13] it was 56%; with ER α, P03372 [14], 62%; with ER α, P03372 [15], 35%.

Consider SRLCFGDWCMLGGVDVLSR [1R], for which the binding result with ER α [16] is given as “binds”.

For the molecule SRTLQLDWGTLYSR [T3-1], the binding result with ER α [2] is on record as “binds”.

As to SSLNMVVDTPWCGKWVCSR [2R], the binding result in the experiment with ER α [16] is “binds”.

On to SREWEDGFGGRWLSR (also called β I; B1) [4T-β], for which the results for the Equiv. with ER β [17] and with ER β [19] were -53% and -62%, respectively. Also, the “phage ELISA grade” value with ER β [18] turned out to be 0.

B2: M2H3 (peptide)
chain: MKLLSSIEQACDICRLKKLKCSKEKPKCAKCLKNNWECRYSPKTKRSPLTRAHLTEVESRLERLEQLFLLIFPREDLDMILKMDSLQDIKALLTGLFVQDNVNKDAVTDRLASVETDMPLTLRQHRISATSSSEESSNKGQRQLTVSEFRQSFVSEILGGGWLPLDLQPS
On to B2, for which, in experiment [3], the “β-galactosidase activity … CPA” value turned out to be 8.59; the “β-galactosidase activity … DHT” value is 24.1; the “β-galactosidase activity … MPA” value stood at 19.2; the “β-galactosidase activity … No Lig” value was 2.53. In [3], the “β-galactosidase activity … RU” value came to 6.8 and the “β-galactosidase activity … Test” value came to 26.6. Besides, the “Fold induction (yeast two-hybrid)” value in experiment [4] was determined as 10 fold.

B3: M7B1 (peptide)
chain: MKLLSSIEQACDICRLKKLKCSKEKPKCAKCLKNNWECRYSPKTKRSPLTRAHLTEVESRLERLEQLFLLIFPREDLDMILKMDSLQDIKALLTGLFVQDNVNKDAVTDRLASVETDMPLTLRQHRISATSSSEESSNKGQRQLTVSEFVGWFTGMAACSYAPDLDLQPS
Regarding B3, in [3], the “β-galactosidase activity … CPA” value stood at 1.69; the “β-galactosidase activity … DHT” value was 3.93; the “β-galactosidase activity … MPA” value was found to be 6.9; the “β-galactosidase activity … No Lig” value amounted to 0. For the same molecule, in experiment [3], the “β-galactosidase activity … RU” value came to 0.1 and the “β-galactosidase activity … Test” value was 4.5. The “Fold induction (yeast two-hybrid)” value in [4] is over 2 fold.

Turning to SSLDLSQFPMTASFLRESR (also called β II; B2) [35E-β], the “phage ELISA grade” value with ER β [18] came to 0.

For SRVFGVSGGEVVLINGSSR [T3-11], the binding result with ER α [2] is “binds”.

Turning to SSEACVGRWMLCEQLGVSR (also called β III; B3) [12B-β], the Equiv. in the experiment with ER β [17] is -71%; in the experiment with ER β [20], 77%; with ER β [19], -61%.

B4: M4D1 (peptide)
chain: MKLLSSIEQACDICRLKKLKCSKEKPKCAKCLKNNWECRYSPKTKRSPLTRAHLTEVESRLERLEQLFLLIFPREDLDMILKMDSLQDIKALLTGLFVQDNVNKDAVTDRLASVETDMPLTLRQHRISATSSSEESSNKGQRQLTVSEFRFPFHEMVREWESMGLERVRYAEP
For B4, in experiment [3], the “β-galactosidase activity … CPA” value is -0.0396; the “β-galactosidase activity … DHT” value stood at 0.395; the “β-galactosidase activity … MPA” value came out at 1.7; the “β-galactosidase activity … No Lig” value was 0. Moreover, in [3], the “β-galactosidase activity … RU” value was determined as 0.1 and the “β-galactosidase activity … Test” value was determined as 0.134. Also, the “Fold induction (yeast two-hybrid)” value in [4] is over 2 fold.
